Measured values as given in patent publication US20170340751A1.

Assays:
[1] = target: SIINFEKL/MHC-I complex on DC2.4 cells (mouse) (UniProt P01901); test: flow cytometry of DC2.4 cells incubated 13 h with OVA antigen fusion protein (SEQ ID NO: 3), PE-25.D1-16 at 0.6 ug/ml
[2] = target: SIINFEKL/MHC-I complex on DC2.4 cells (mouse) (UniProt P01901); test: flow cytometry of DC2.4 cells loaded with SIINFEKL peptide (positive control), PE-25.D1-16 at 0.6 ug/ml

PE-labeled monoclonal antibody 25.D1-16
percent of cells positively stained [1]: 17.6%
percent of cells positively stained [2]: > 80%
